From article PMC3585964, “Tissue Inhibitor of Metalloproteinases-3 Peptides Inhibit Angiogenesis and Choroidal Neovascularization in Mice” (PLoS ONE, 2013)
“Also recorded” adds a separate entry of the source. Like-named read-outs stand apart in the source and are kept apart here. Ends that are not written are not given here. Peptide text beside a SMILES is read from it.

Assays:
[1] = biological target: VEGFR-2 (KDR/Fc chimera) binding to VEGF (Homo sapiens, UniProt P35968); assay: Competitive ELISA, binding of sVEGFR-2/Fc to immobilized VEGF
Method: (§1) 96 well EIA/RIA strip plates (COSTAR) were coated with 80 ng/ml recombinant VEGF overnight at 4°C, washed and blocked with blocking buffer (1% BSA and 5% sucrose) overnight at 4°C. Series of dilutions were prepared for recombinant proteins representing WT-TIMP-3, NT2:CT3 and N-T3 in PBS or synthetic peptides corresponding to T3-loop 5, T3-loop 6, T3-N or T3-tail peptides in 0.5 M Tris-HCl (pH 7.5). The diluents were mixed with 50 ng/ml recombinant human VEGFR-2 (KDR/Fc chimera, recombinant human VEGFR-1 (Flt-1)/Fc chimera (R&D Systems, Minneapolis, MN) or control human lgG (Sigma Aldrich, St Louis, MO). The mixtures were then added to the VEGF-coated well in a final volume of 100 µL in PBS and incubated for 2 hours at room temperature. Bound VEGFR-2 was detected by HRP-conjugated anti-human lgG(Fc specific) (1∶1000).

[2] = system: angiogenesis; VEGF binding to VEGFR-2; details: cited from earlier work
Text: Tissue inhibitors of metalloproteinases (TIMPs) constitute a family of four proteins (TIMP-1, TIMP-2, TIMP-3 and TIMP-4) that are endogenous inhibitors of […] and play a critical role in the maintenance of extracellular matrix (ECM) homeostasis. In general, all four TIMPs are broad-spectrum inhibitors of the MMP family, with some differences in specificity. […] Based on these studies we designed experiments t ... || Sorsby fundus dystrophy (SFD), an autosomal dominant, fully penetrant, degenerative disease of the macula, [25] is manifested by symptoms of night blindness or sudden loss of acuity, usually in the third to fourth decades of life due to submacular neovascularization, [27], [28], [29]. SFD is caused by specific mutations in the tissue inhibitor of metalloproteinases-3 (TIMP-3) gene, [31], [32], [33], [34], [35], [36], [37], most of which introduce an unpaired cysteine at the C-terminus of the protein. We have recently reported that S156C mutation in TI ...

[3] = system: VEGFR-1 (Flt-1)/Fc chimera binding to VEGF; assay: Competitive ELISA, binding of sVEGFR-1/Fc to immobilized VEGF; set-up: species or system human; details: 50 ng/ml sVEGFR-1 (sFlt-1)
Method: as §1

[4] = read-out: IC50, inhibition of VEGF binding to sVEGFR-2/Fc chimera (recombinant proteins), competitive ELISA, 50 ng/ml human VEGFR-2/Fc, plate coated with 80 ng/ml VEGF, 2 h room temperature, proteins in PBS

VEGFR-2 (KDR/Fc chimera) binding to VEGF, sequence (P35968 with tags, fused parts or gaps limits assumed): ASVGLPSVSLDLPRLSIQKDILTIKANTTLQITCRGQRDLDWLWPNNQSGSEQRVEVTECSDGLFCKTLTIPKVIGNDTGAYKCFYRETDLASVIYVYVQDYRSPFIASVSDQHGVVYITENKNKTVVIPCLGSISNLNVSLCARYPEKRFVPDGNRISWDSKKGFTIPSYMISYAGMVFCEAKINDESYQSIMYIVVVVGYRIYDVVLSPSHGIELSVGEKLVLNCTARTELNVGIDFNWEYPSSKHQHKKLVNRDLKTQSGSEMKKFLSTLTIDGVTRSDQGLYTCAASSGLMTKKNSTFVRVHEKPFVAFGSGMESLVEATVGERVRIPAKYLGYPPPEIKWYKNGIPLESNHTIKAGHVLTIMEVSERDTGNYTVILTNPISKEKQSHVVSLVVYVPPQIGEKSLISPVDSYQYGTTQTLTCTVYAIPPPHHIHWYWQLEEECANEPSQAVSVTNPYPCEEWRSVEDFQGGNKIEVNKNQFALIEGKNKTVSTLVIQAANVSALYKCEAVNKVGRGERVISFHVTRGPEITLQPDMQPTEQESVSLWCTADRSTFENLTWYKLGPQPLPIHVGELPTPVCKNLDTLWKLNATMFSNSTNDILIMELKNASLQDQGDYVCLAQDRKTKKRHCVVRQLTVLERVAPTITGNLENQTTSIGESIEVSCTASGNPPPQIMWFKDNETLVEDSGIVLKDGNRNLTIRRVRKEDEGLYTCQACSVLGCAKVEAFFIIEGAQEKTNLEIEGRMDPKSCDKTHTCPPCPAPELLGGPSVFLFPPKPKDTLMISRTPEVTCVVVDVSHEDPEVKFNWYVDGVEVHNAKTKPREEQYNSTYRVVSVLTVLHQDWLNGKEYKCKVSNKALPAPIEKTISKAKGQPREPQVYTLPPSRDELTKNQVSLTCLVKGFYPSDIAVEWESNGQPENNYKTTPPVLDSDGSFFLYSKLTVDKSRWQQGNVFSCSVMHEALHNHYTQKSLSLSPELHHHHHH

GYCSWYRGWAPPDKSIINATDP [T3-tail]
IC50 [1]: 5000 nM

CC[C@H](C)[C@H](NC(=O)[C@H](CS)NC(=O)[C@H](C)NC(=O)[C@H](Cc1ccc(O)cc1)NC(=O)[C@H](Cc1c[nH]cn1)NC(=O)[C@H](CCCCN)NC(=O)[C@H](CO)NC(=O)[C@H](CCC(N)=O)NC(=O)[C@H](Cc1ccc(O)cc1)NC(=O)CNC(=O)[C@@H]1CCCN1C(=O)[C@H](Cc1ccc(O)cc1)NC(=O)CNC(=O)[C@H](Cc1ccccc1)NC(=O)[C@H](CC(N)=O)NC(=O)[C@H](CO)NC(=O)[C@H](CC(C)C)NC(=O)[C@H](CCSC)NC(=O)[C@H](CC(=O)O)NC(=O)[C@@H](NC(=O)[C@H](Cc1c[nH]c2ccccc12)NC(=O)[C@H](CC(C)C)NC(=O)[C@H](CS)NC(=O)[C@H](CCC(=O)O)NC(=O)[C@H](CC(N)=O)NC(=O)[C@@H](N)CCCCN)[C@@H](C)O)C(=O)N[C@@H](CCCNC(=N)N)C(=O)N[C@@H](CCC(N)=O)C(=O)N[C@@H](CCCCN)C(=O)NCC(=O)O [T3-loop 6] (H-KNECLWTDMLSNFGYPGYQSKHYACIRQKG-OH)
IC50 [1]: 2000 nM

B1: S156C mutation in TIMP-3: TIMP-3 with the S156C mutation (Sorsby fundus dystrophy) (protein, UniProt P35625 24-211, looked up, variant S156C)
Metalloproteinase inhibitor 3: CTCSPSHPQDAFCNSDIVIRAKVVGKKLVKEGPFGTLVYTIKQMKMYRGFTKMPHVQYIHTEASESLCGLKLEVNKYQYLLTGRVYDGKMYTGLCNFVERWDQLTLSQRKGLNYRYHLGCNCKIKSCYYLPCFVTSKNECLWTDMLSNFGYPGYQCKHYACIRQKGGYCSWYRGWAPPDKSIINATDP
Effect of TIMP-3 mutation on angiogenesis (literature) ([2]; ref [18]): induces increased angiogenesis

B2: WT-TIMP-3: Full length, recombinant human TIMP-3 purified from stably transfected mouse myeloma cells (protein, UniProt P35625 1-211, looked up)
chain: MTPWLGLIVLLGSWSLGDWGAEACTCSPSHPQDAFCNSDIVIRAKVVGKKLVKEGPFGTLVYTIKQMKMYRGFTKMPHVQYIHTEASESLCGLKLEVNKYQYLLTGRVYDGKMYTGLCNFVERWDQLTLSQRKGLNYRYHLGCNCKIKSCYYLPCFVTSKNECLWTDMLSNFGYPGYQSKHYACIRQKGGYCSWYRGWAPPDKSIINATDP
modifications: full-length
notes: Full length, recombinant human TIMP-3 purified from stably transfected mouse myeloma cells
Blocking of VEGF binding to VEGFR-2 / angiogenesis inhibition (literature) ([2]; independent of MMP inhibitory activity, ref [8]): potent angiogenesis inhibitor | Inhibition of angiogenesis independent of MMP inhibition (literature) ([2]; ref [8], [21], [22]): Inhibition of angiogenesis | Effect of recombinant proteins on VEGF binding to VEGFR-1 (in words) [3]: unable to block sVEGFR-1-VEGF complexes; also recorded: neither full length WT-TIMP-3 nor COOH-terminal TIMP-3 blocked the binding of VEGF to VEGFR1 | Effect of recombinant proteins on VEGF-VEGFR-2 complexes (in words) ([1]; competitive ELISA, 50 ng/ml sVEGFR-2, proteins in PBS): inhibit sVEGFR-2-VEGF complexes in a concentration-dependent manner; also recorded: markedly decreased | IC50 [1, 4]: 41 nM

B3: NT2:CT3: NH2-terminal TIMP-2: COOH-terminal TIMP-3 chimera (residues 1–126 of TIMP-2 and residues 122–188 of TIMP-3) (protein)
chain: CSCSPVHPQQAFCNADVVIRAKAVSEKEVDSGNDIYGNPIKRIQYEIKQIKMFKGPEKDIEFIYTAPSSAVCGVSLDVGGKKEYLIAGKAEGDGKMHITLCDFIVPWDTLSTTQKKSLNHRYQMGCCKIKSCYYLPCFVTSKNECLWTDMLSNFGYPGYQSKHYACIRQKGGYCSWYRGWAPPDKSIINATDP
modifications: Limits are in mature numbering (TIMP-2 offset +26, TIMP-3 offset +23); Methods print TIMP-2 1-127 and Results print 1-126; the Methods limit i
IC50 [1, 4]: 28 nM
